{"source": "paper PMC11293870", "molecular_target": "T1, LKB1-3xFlag (pcDNA3.1-LKB1-3xFlag) (human) (UniProt Q15831)", "T1 sequence": "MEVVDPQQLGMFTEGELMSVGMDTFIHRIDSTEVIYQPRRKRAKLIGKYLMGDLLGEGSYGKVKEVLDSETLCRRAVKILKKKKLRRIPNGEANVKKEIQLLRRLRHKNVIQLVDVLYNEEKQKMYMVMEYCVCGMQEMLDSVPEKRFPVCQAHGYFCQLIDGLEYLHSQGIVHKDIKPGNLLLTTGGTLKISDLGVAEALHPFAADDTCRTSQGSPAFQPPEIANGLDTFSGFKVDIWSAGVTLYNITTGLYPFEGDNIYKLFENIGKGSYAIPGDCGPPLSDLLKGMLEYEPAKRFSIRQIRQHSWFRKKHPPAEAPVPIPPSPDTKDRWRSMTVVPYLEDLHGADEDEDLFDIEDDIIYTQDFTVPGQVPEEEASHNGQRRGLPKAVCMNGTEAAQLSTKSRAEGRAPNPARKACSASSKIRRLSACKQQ", "data": [{"binder": "STRADα-KinCon (pcDNA3.1-F[1]-STRADα-F[2]) (natural protein) MSFLVSKPERIRRWVSEKFIVEGLRDLELFGEQPPGDTRRKTNDASSESIASFSKQEVMSSFLPEGGCYELLTVIGKGFEDLMTVNLARYKPTGEYVTVRRINLEACSNEMVTFLQGELHVSKLFNHPNIVPYRATFIADNELWVVTSFMAYGSAKDLICTHFMDGMNELAIAYILQGVLKALDYIHHMGYVHRSVKASHILISVDGKVYLSGLRSNLSMISHGQRQRVVHDFPKYSVKVLPWLSPEVLQQNLQGYDAKSDIYSVGITACELANGHVPFKDMPATQMLLEKLNGTVPCLLDTSTIPAEELTMSPSRSVANSGLSDSLTTSTPRPSNGDSPSHPYHRTFSPHFHHFVEQCLQRNPDARPSASTLLNHSFFKQIKRRASEALPELLRPVTPITNFEGSQSQDHSGIFGLVTNLEELEVDDWEF", "values": [{"measurement": "STRADα KinCon reporter bioluminescence (intramolecular RLuc PCA, closing of the conformation) on co-expression of LKB1 and MO25; HEK293T, 48 hr of expression (also HeLa and SW480)", "value": "> 10", "unit": "fold"}]}]}
